In the RNAGym collection of RNA variant scans (doi:10.1073/pnas.2313332121):
This sample holds only a part of the variants without activity.

B1: TPR 5TU (parent)
chain: GGAUCUUCUCGAUCUAACAAAAAAGACAAAUCUGCCACAAAGCUUGAGAGCAUCUUCGGAUGCAGAGGCGGCAGCCUUCGGUGGCGCGAUAGCGCCAACGUUCUCAACUAUGACACGCAAAACGCGUGCUCCGUUGAAUGGAGUUUAUCAUG

Variants of: B1
Assay: polymerase ribozyme fitness, log enrichment relative to wild type (log ratio); higher = more active; in vitro selection for triplet polymerase activity
Outline: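 Fitness is a logarithmic measure of how a genotype enriched relative to the wild type, with replicate averages weighted by inverse variance. The logarithm uses base 2, and enrichment came from Illumina sequencing of input and output libraries. Those libraries were PCR-built, transcribed mutants of each subunit of a heterodimeric triplet polymerase ribozyme, passed through one triplicate in vitro selection round that included frozen incubation at −7 °C, gel excision of extended constructs and streptavidin-bead capture. Genotypes were kept only if they had ≥10 input reads and ≥1 read per output.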

Variant | polymerase ribozyme fitness (log ratio)
C10U A16G G84U G140U | ≤ -4.2
C10U A23U U90G | ≤ -4.2
U9C A22G A23C G25C G83C | ≤ -4.2
C10G A16U C54U U56A G59A G88C C105G A110G A119U C123A U145G U148C | ≤ -4.2
U9G C85A C103A C118G U134A | ≤ -4.2
C10U A91U C96A A98U A142G U151C | ≤ -4.2
C10U A19C U45G C72G U90C U135G | ≤ -4.2
U9G G25C A47G C87A G92U C114A | ≤ -4.2
C10U A16C A39C G50U U56A G67C G94C C108U | ≤ -4.2
C10G G94A | -3.44
C10G A40U A64U C76G C85A G117U G136A G143A | ≤ -4.2
C10U G11A A19U U55A C75G G83U | ≤ -4.2
C10U G88U | ≤ -4.2
C10G U15G A23C G62C A97C C125U | ≤ -4.2
C10G U53A C57U G86C A106G C108G A113G U127G | ≤ -4.2
C10A A12U G80C G94A | ≤ -4.2
C10G A17C C36U G48A A64U G88C C118G | ≤ -4.2
C10G A17U A37C G59C C85A | ≤ -4.2
U9C U15G C54A G67C G84A G117A | ≤ -4.2
C10U A16G C43G U44G U77A U82A A120C | ≤ -4.2
C10G U44G U56G C57U A66C C87U A106G A142U | ≤ -4.2

Variant | polymerase ribozyme fitness (log ratio)
U9G C14A C85U G141U | -4.19
U9G A19C U55A | ≤ -4.2
C10U A47U G59C A60G G62A A110U G141C U145A U148A | ≤ -4.2
C10G C27A A39U C75A G92C A97U A121U | ≤ -4.2
C10U C32U A49C U134C | ≤ -4.2
C10U C116U A147C | -3.39
U9G C32G G71A | ≤ -4.2
U9C C35G A39U C103G | ≤ -4.2
C10G A47U C54A C72U G81A G92C G133U U135G | ≤ -4.2
C10A U33G A60G C75A A106U G117U A137C U144A | ≤ -4.2
C10A U33A U78G U90A G140A | ≤ -4.2
C10U A21G A22G A40G C79A C85G A138U | ≤ -4.2
C10A A22U A24G A40C A52C C57U G70A C93U A147C | -4.05
C10U C69U A147C U148G C149G | ≤ -4.2
C10U G50U C95U | -3.16
U9G A29C G59A C76U C87G A120C | ≤ -4.2
U9C U56A G83A C87U | ≤ -4.2
C10G G42U G58A G86U A97U U101G G141C | ≤ -4.2
C10U C51G U53A U90G | ≤ -4.2
C10G C38U C87A C93G | ≤ -4.2
U9C U55G | -3.53

Variant | polymerase ribozyme fitness (log ratio)
C10U G42U A64U C93A A106U C123U G140A | ≤ -4.2
U9G A24U U33C G143C A147C | ≤ -4.2
U9G C18U U45G G48A C76U | ≤ -4.2
U9G G92A C116U C125U U134C | ≤ -4.2
C10G U33G G42C G50U G74C | ≤ -4.2
C10G A29U C95U C108A G117A G143C | ≤ -4.2
C10A G50A A60G G86A G133C | ≤ -4.2
U9G | -2.82
C10U A107G | ≤ -4.2
C10A C79A A97G A150G | ≤ -4.2
U9C A30U C35A U82A A91U C93A G140U G143A U151G | ≤ -4.2
U9C A47U | -3.94
C10U A22U C79A G83C A106U | ≤ -4.2
C10U C32G U145C | -4.16
C10G A20G A138G U144A U145A | ≤ -4.2
U9C C14G | ≤ -4.2
C10U C14G A39C A91G C95G C99U C105G A137G | ≤ -4.2
C10A A28U G58A C96U A122G G124C | ≤ -4.2
C10U C118U | -2.81
C10G U56A C57U C69U C95A C99U C108U A121U A147G | ≤ -4.2
U9G C85A | -3.76

Variant | polymerase ribozyme fitness (log ratio)
C10A A24C G71A U77G G94A C99A C125U G140C | ≤ -4.2
U9G A20C A29U C35U A47C C54U U56A C96A U130G | ≤ -4.2
U9G A142G | ≤ -4.2
C10A A16U U33A A121U G141C | -4.19
C10U C38U G80A G94C C125A G143A | ≤ -4.2
C10G G92C U111A C114A | ≤ -4.2
C10A C54A | ≤ -4.2
C10U A19G U33A C79U C93U | ≤ -4.2
C10G C35U | -3.4
U9C A73U | -4.1
C10A A22G G46A C54U C75G G83U C95A | ≤ -4.2
U9G C87U | -4.11
C10G C32G C38G U55G C87A G92A C125G G126A | -4.1
U9G C32U C38U A49C G58A A60U C87G C95U G133U A142U | ≤ -4.2
U9G C10A C18U A66U G81U C96U | ≤ -4.2
U9C A22C C96G C99G G128U | ≤ -4.2
C10A A12G A22G U56A C85G | ≤ -4.2
C10U C103G C132U | ≤ -4.2
U9G G50A G83A G133U | ≤ -4.2
C10G A29C C54A U55G G88A G92U G124U | ≤ -4.2
